Experimental data published in US20020123091.

Test system: PRO256 polypeptide
Sequence (chain, as listed by the source): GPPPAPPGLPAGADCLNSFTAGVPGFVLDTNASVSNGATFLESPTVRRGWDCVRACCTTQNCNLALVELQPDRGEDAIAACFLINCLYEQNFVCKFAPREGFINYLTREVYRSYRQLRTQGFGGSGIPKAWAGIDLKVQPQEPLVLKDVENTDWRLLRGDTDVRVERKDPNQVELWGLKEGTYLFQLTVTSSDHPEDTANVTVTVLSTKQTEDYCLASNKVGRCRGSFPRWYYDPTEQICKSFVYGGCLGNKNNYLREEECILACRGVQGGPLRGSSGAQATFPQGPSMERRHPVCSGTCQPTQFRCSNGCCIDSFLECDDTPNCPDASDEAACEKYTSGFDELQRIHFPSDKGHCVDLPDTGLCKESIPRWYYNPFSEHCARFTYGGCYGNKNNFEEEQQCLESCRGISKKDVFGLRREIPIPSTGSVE

human kallikrein (Haematologic Technologies), sequence (chain, as listed by the source): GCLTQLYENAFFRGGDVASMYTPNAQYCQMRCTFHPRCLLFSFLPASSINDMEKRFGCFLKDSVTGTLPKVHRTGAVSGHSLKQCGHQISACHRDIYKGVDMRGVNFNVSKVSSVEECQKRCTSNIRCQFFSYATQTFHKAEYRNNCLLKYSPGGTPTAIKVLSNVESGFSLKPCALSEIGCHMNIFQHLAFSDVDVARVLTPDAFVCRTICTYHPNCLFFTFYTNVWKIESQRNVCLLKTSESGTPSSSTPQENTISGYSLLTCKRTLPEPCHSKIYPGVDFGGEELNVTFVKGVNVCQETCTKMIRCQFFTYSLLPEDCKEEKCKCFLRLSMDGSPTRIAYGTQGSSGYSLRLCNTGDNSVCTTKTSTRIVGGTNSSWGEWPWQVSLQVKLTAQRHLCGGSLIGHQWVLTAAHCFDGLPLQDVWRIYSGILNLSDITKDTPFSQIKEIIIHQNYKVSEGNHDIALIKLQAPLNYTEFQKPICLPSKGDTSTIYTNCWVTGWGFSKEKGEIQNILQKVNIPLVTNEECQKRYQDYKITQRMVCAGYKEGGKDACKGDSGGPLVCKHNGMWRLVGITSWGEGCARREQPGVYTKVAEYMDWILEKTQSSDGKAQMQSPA

Q: For “human kallikrein (Haematologic Technologies)”, which “kallikrein (40 nM) conversion of ^125I-scHGF into its two chain form, SDS-PAGE/autoradiography, PRO256 at 1 µM” value is on record?
A: In the presence of PRO256, kallikrein conversion of ^125I-scHGF into its two chain form is inhibited over the 4 hour incubation period compared with the control.
